The values below come from a protein production outcome set (Wang et al. 2014).

The series is described as follows: label from the status in PepcDB records.
Consider “MTEMQSLRHRLIRQPGPVSGECWIAFFDGVAHPVLIKNAQGQVIFANRAACDLLGRDRSGLAGGAEHELVAGTQAEQIASFDAEAMRRGSVSAEQEMPGPRGVRRFLVSRRPAGEHLVVTFFEITDLRETEGVLRQREAHLRNLLELHPVAPFSFTADGVLSDLSDRLVAITGLPAGTRHVDAWWAAMHPCDRRDLRRAWIRSVRGGQSFDAEHRLQMPDGAYRWFRARIVARPRDQDQRVDRWFGIIEDVHERRTTVEQLRESEARFRAFADDAPVMIWVTDTEGRNVFVSRSWLGATGQSLDEALGTGWIDAVHPDDRDATAAITREAMRRRIAYTNEFRIRRKDGGWCWVIDVGHPRLLADGTFIGYIGCCVDISARRQAEDDRVMAQLQVFHMARHDMLTGLPNRHYFGDCYQEAVASLAPERSVAVLMLDLDGFKTVNDTRGHPVGDQVLCEVANRLRTSVRSTDTVARLGGDEFAVIQTPIRSEQEACDLARRLIAAISKPFDLEGAVPEVGASVGIAFARGHGDSAEEIMRYADVALYAAKQAGRGTFRVFDEATDTHLQSRQKMKAALRAALGLGELSVFYQPLIGLRDGQVTACEALMRWHRKGAGWITPDQFIPLAEEAGLIGDMGDWVLHEACAQAARWPDSVSVAVNLSPLQFHGGALVDQVASALRASGLPPERLQLEITESVLLDPTDRNIGVLQDLRALGAKIVMDDFGTGYSSLGYLRSFPFDKIKVDRSFIRDLPDAREALAILKAVAGLGRSLDMRTTVEGVETQAQLDCAIAEGVDEAQGYFFSRPLPAPGIASFISGCLPKRRIQPATGDAAT”, for which the protein production entry is on record as “failed”.

As to “MAIDTTSSAPVHEPQPPLDTRLSTRDKLVLFVLCAAQFMVALDFSVLNVALPVLGRDLGMSQSALQWAVTAFALPSGGFLLLFGRIGDLYGRRRLFLTGLALFGTASLLATFAWDPASFLAGRALQGLGAAAIVPTGMSLLTTTFPEGPARDRALGISGTLLSLGFTVGMVAGGVLTDAFGWRSTMGLLTLFALIVLPLAPGLLPESRTPDRPRLDIPGAVTVTGGLLSLIYALSTAAERGFGGTDVIATLVAGVLLLAAFVTVESHAEAPLVSLPMLRRRTVAWGNLGGLITFSMMSTVVFVLTLYLQETLGLSAFETGLVFGVQGVLSAVAGANASKVIGRLGARRTLVVSLAGQGAFVATLVALGDGGWSVWLATAAVSLASMCHLGAIISYGLTVTSGVPDDEQGLATGLVTSTQQVGITIGIPLLGVLATTSSDLLAGVHTVLALDAVIVLAAAVLIAVGLGRRPATAPGAASGAVEAEAVGSR”, the protein production result was “failed”. On to “MQDHIISFTAGILSVLSPCILPVIPVIFSESLIGNRKERFLFLSGFSSLFLFTIILTAIFTAAVNYYLLYLRVPASIMLIIMGLLVLSEKPLISIRTPPAENHVLMGLLTAIAWTPCYSPYLIGVIAYSAYTGIPGALVNMALYTLGLTITLIAVTLLAEPVLRRLLRGSRDIRRASGVLIVVAGIYMLYQLIPLP”, for which the protein production entry is recorded as “failed”. Take “MRIFIIKSSTAHTAFDYSIKDIPGTSGRLDLICRSLNAAFQLSHSFRKNVRVYTVLYGPPDPPKTIRFEGAKIKPKTLNPDEVSTAKLIGKILNAGKDIKEPTKEREVLPGIYISRMTFEDVVRKNIKYNLYLLEENGVDIEKVKFPQDNVGFILGDQNGFTEEELNFLEGLVPKITIGPKPYLTSHVIAFVNIYLDRIGIP”: the protein production entry is listed as “failed”. As for “MVLSVVVVGKPRCRSIAVAARERLHRYGEYPMSSNNASGKVVSVDEQAFENAGEQAADEDGFPVVDETPEFEAAVEQETQAKVDANHPDGIADTSEDRIHGVTLEQEERIRAREAELERISAQAELGTQDGREQRTRDIAAKRSAVRRAEFQTRAASVDPMADPERDDPRAELTQEQLAAVNKQSMRLAEKLDGWSRAAIGRRLGEAVVGGKDVTSAVVGVFEELQTAPGTVIPIGKLEDVNRKEVSIEGTVTRLWKPSSAAISQVGLIEDESGKTKFTSWVASEQPWIEEGEHVRIHGAAKNWYNGRVSVALTGWSTVHFPERGRWWEALEHHHHHH”, the protein production result is “failed”. Consider “MKVITSLISSILLKFIHKDFHEIYARMSLLDRFLLLIVHGVDKMVPWHKLPVFLGLTYLEVRRHLHQQYNLLNVGQTPTGIRFDPANYPYRTADGKFNDPFNEGVGSQNSFFGRNCPPVDQKSKLRRPDPMVVATKLLGRKKFIDTGKQFNMIAASWIQFMIHDWIDHLEDTHQIELVAPKEVASKCPLSSFRFLKTKEVPTGFFEIKTGSQNIRTPWWDSSVIYGSNSKTLDRVRTYKDGKLKISEETGLLLHDEDGLAISGDIRNSWAGVSALQALFIKEHNAVCDALKDEDDDLEDEDLYRYARLVTSAVVAKIHTIDWTVQLLKTDTLLAGMRANWYGLLGKKFKDSFGHAGSSILGGVVGMKKPQNHGVPYSLTEDFTSVYRMHSLLPDQLHILDIDDVPGTNKSLPLIQEISMRDLIGRKGEETMSHIGFTKLMVSMGHQASGALELMNYPMWLRDIVPHDPNGQARPDHVDLAALEIYRDRERSVPRYNEFRRSMFMIPITKWEDLTEDEEAIEVLDDVYDGDVEELDLLVGLMAEKKIKGFAISETAFYIFLIMATRRLEADRFFTSDFNETIYTKKGLEWVNTTESLKDVIDRHYPDMTDKWMNSESAFSVWDSPPLTKNPIPLYLRIPS”, for which the protein production result is “failed”.

For the sequence “MIVAWTLGIFGDDLPKGGARETGLLVHVSAGLLILAALIMRLVWRAAVPPPPPEPNEFRRWLGAFADPSARLFHYTLYALLVVVPVAGIVTQFARGEALPLLGIYEISSPWIRDRAFAHSVKEIHEIAAHALVFVAFFHAGAALIHHIVFRDNTLNRMLPRSK”, the protein production entry was “failed”. For “WSLQPLADMSAAEFRDWQVLLENRTGVVLNEQRRTFLQASLTARMRELGIGDYHSYYRQVTDGPRGAVEWATLLDRLTVQETRFFRHPPSFELLERYLGERLRREGMPRPWALWSVGCSSGEEPYSLAMCAAQVLRGQEREDFFGVTGTDISLHALQRARQANYPARKLEQLEAGLVERYCERQADGSFSVKTILTERVCCARLNVLDLAKAPWSGMDVIFCQNLLIYFRRWRRREILNRLAERLAPGGLLVIGVGEVVDWSHPELEPVADERVL”, the protein production result is listed as “failed”. With “QAVPCRAPKVGRLIYTAGGYFRQSLSYLEAYNPSNGSWLRLADLQVPRSGLAGCVVGGLLYAVGGRNNSPDGNTDSSALDCYNPMTNQWSPCASMSVPRNRIGVGVIDGHIYAVGGSHGCIHHSSVERYEPERDEWHLVAPMLTRRIGVGVAVLNRLLYAVGGFDGTNRLNSAECYYPERNEWRMITPMNTIRSGAGVCVLHNCIYAAGGYDGQDQLNSVERYDVETETWTFVAPMRHRSALGITVHQGKIYVLGGYDGHTFLDSVECYDPDSDTWSEVTRMTSGRSGVGVAVTMEPCRKQIDQQNCTC”, the protein production entry is listed as “not failed”.

“MAEASPQPGRYFCHCCSVEIVPRLPDYICPRCESGFIEELPEETRNTENGSAPSTAPTDQNRQPFENVDQHLFTLPQGYSQFAFGIFDDSFEIPTFPPGAQADDGRDPESRREREHQSRHRYGARQPRARLTARRATGRHEGVPTLEGIIQQLVNGIISPAAVPSLGLGPWGVLHSNPMDYAWGANGLDTIITQLLNQFENTGPPPADKEKIQALPTVPVTEEHVGSGLECPVCKEDYALGESVRQLPCNHLFHDSCIVPWLEQHDSCPVCRKSLTGQNTATNPPGLTGVGFSSSSSSSSSSSPSNENATSNS”: the protein production entry was “not failed”. For the sequence “SEITVSEFLLDFLNKYSENISLATYNNYVSICKNYINPSIGKYKIQDLHPVHIQNYIDKLSYKLNPQSIKIHINILKLAIKRAYRLKLIKENVMDSIKAP”, the protein production result is reported as “failed”. Turning to “MINRDFIISFIVVTCIIYLIYVCYGKYLEKKQIYLKTLTIFLIIEVLRRIFIYGKVNNRLISGLSFIQLIFLGISVAMYGLMYFKNNLS”, the protein production entry is “failed”. Take “MEQPQEEAPEVREEEEKEEVAEAEGAPELNGGPQHALPSSSYTDLSRSSSPPSLLDQLQMGCDGASCGSLNMECRVCGDKASGFHYGVHACEGCKGFFRRTIRMKLEYEKCERSCKIQKKNRNKCQYCRFQKCLALGMSHNAIRFGRMPEAEKRKLVAGLTANEGSQYNPQVADLKAFSKHIYNAYLKNFNMTKKKARSILTGKASHTAPFVIHDIETLWQAEKGLVWKQLVNGLPPYKEISVHVFYRCQCTTVETVRELTEFAKSIPSFSSLFLNDQVTLLKYGVHEAIFAMLASIVNKDGLLVANGSGFVTREFLRSLRKPFSDIIEPKFEFAVKFNALELDDSDLALFIAAIILCGGE”: the protein production result is “not failed”. The result for “MFQDPTDEYIRTITAHCDLAGKEVLEVGCGTGRITRDLARHARRVVAVDPDETALAKARSAVPAPNVQFLPMPDGVLHFPPASFDVVIHTLSLHHVPLDRMNESLRAAAGLVRDGGVIVVVEPGDGGSFTEAKERFGAGSGDERPGREAAIRAMHGLDGWTVGETVLFRVRFLFADEDDFIATKLPGFGEKPEAFQQEVREFLARHRTAEGVVLDAGRRLNVLRRG” reads “failed”; that for “MKCRGHKNSYFCQDSNEIKSANSNSPLCGDHSFFEMATKQRKGSRSSGRNTSSANTRKGGNFLRRIFITPIRDTFSRDKVGFVFGAILLAIALYTTIAIGSFFVHGGVDQSVVRDAPVSDILLGRAPVANLCGIRGAVWSEWLMNGLFGFGTLFLLFCVFSLSLKLMGVVKRISVVKRLIFCGVMTFWTSLAAAFIYKLSGLEGFLRWGGMHGQEWTLFLERNIGKAGLIIVLLVLAVIIAVVVRSECMGFFRRLLGLSWISIPKLPKKERKNNHDESENESLGNGYDTGESENLSGYLNNSEYEDGPAGESADDPDDYIPPHKEEGENDSSQSIQMGSMTVELAQEEEKADEALLAEIKTDPRMDLASYKFPSVDLLTQYDLQQPPIDMNEIEENQKRIIATLDSFKIHVTPIKATVGPTVTLYEVAPDSGIKISRIRNLEDDIAMSLKAVGGIRIIAPMPGKGTIGIEVPNRKPQTVSMYSVLTSKKYQESDMDLPVALGKTITNEVFIFDLCKMPHLLIAGATGQGKSVGLNAMITSLLYKKHPAELKFVLVDPKMLEFAVYEAIERHYLAKLPDEDRAIVTDMTKVVPTLNSLCIEMDNRYRMLTEARVRNIKEYNDQIISGKLSRLHGHKFLPYIVLIVDEFADLIMTSGKEVERPITRIAQKARAAGIHMVVATQRPSTDIITGIIKANFPARIAFKVFSMIDSRTILDQPGANQLVGRGDMLFYQGKDTVRLQCAFLDTPECEAVTHHISLQESYTSAYELPEYVPEGEEGGPKAFNPQEKDPLFEEVARMVVNSQQGSTSNIQRKFNIGYNRAGRLMDQLEGAGIVSPQDGSKPRQVLIQDEMSLERLFETLR”, “failed”. With “KEAGSQIMKFEVQDASPTIATELNLVTGEQVYYIKRLRFIEDNAAQLEETWMSVARFPDLTVSHMQKSKFSYIENECGIKIIGTFETFSPTFPTPEIASILRISPRDPILKIQTQAVDSNSIPLDYSLLYSN”, the protein production result is “failed”. Consider “AIVKRFEPLLLVPIGFGGILSNLPDAGLAMSAIENAVYAAKPEVMTAFSEVLQLSSYMPADIKQALSSATPLQMTTLHLLAEQYQYSDGM”, for which the protein production entry is listed as “failed”. Turning to “MSEIEELVCIEASVTRKSTSNTVEIRESRRNKVTLGSSDSPAFPTPHLFLKNIVSFDEQSMYNLLYPRLQDPNLCSILSFKIAFEAKRVPGPLYISYDVTLTPQIFEEPDMETCGLCLLEEQHLFDMPNCAHVFHGDCIDKWLSTSNNCPLCGVEIMDDDE”, the protein production entry was “failed”. On to “EKQSIHRTQLEALDSVITDLETSAQKGISLTEPEIFASLLETCYSLRAIDHGVRVHHLIPPYLLRNNLGISSKLVRLYASCGYAEVAHEVFDRMSKRDSSPFAWNSLISGYAELGQYEDAMALYFQMAEDGVKPDRFTFPRVLKACGGIGSVQIGEAIHRDLVKEGFGYDVYVLNALVVMYAKCGDIVKARNVFDMIPHKDYVSWNSMLTGYLHHGLLHEALDIFRLMVQNGIEPDKVAISSVLARVLSFKHGRQLHGWVIRRGMEWELSVANALIVLYSKRGQLGQACFIFDQMLERDTVSWNAIISAHSKNSNGLKYFEQMHRANAKPDGITFVSVLSLCANTGMVEDGERLFSLMSKEYGIDPKMEHYACMVNLYGRAGMMEEAYSMIVQEMGLEAGPTVWGALLYACYLHGNTDIGEVAAQRLFELEPDNEHNFELLIRIYSKAKRAEDVERVRQMMVDRGLET”, for which the protein production result is given as “not failed”.
